This data set is described as follows: self-splicing fitness, log relative to wild type (ln ratio); higher = more splicing; Tetrahymena group I intron in knt gene, E. coli kanamycin selection, DiMSum; sequences stand for … in CUCUCU…GGAGGGAAAAGUUAUCAGGCAUGCACCUGGUAGCUAGUCUUUAAACCAAUAGAUUGCAUCGGUUUAAAAGGCAAGACCGUCAAAUUGCGGGAAAGGGGUCAACAGCCGUUCAGUACCAAGUCUCAGGGGAAACUUUGAGAUGGCCUUGCAAAGGGUAUGGUAAUAAGCUGACGGACAUGGUCCUAACCACGCAGCCAAGUCCUAAGUCAACAGAUCUUCUGUUGAUAUGGAUGCAGUUCACAGACUAAAUGUCGGUCGGGGAAGAUGUAUUCUUCUCAUAAGAUAUAGUCGGACCUCUCCUUAAUGGGAGCUAGCGGAUGAAGUGAUGCAACACUGGAGCCGCUGGGAACUAAUUUGUAUGCGAAAGUAUAUUGAUUAGUUUUGGAGUACUCGUGGUCG
The procedure, abridged: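 Library with all eight P1ex-region intron nucleotides randomised, intron inside the knt kanamycin-resistance gene on pET-22b(+), in E. coli BL21(DE3). Cells grew overnight at 37°C or 30°C on LB agar with or without 25 μg/mL kanamycin (plus 100 μg/mL carbenicillin, 50 μM IPTG, 0.2% rhamnose), in six replicate transformations. Pooled colonies were amplicon-sequenced on Illumina HiSeq 2500. DiMSum fitness is the error-weighted combination of wild-type-normalised replicate fold changes, kanamycin versus none.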

± gives the uncertainty stated by the source.

In the case of CAGUAGCAAUAUUACGUUAC, the “self-splicing fitness (ln)” value was -3.34 ± 0.47 (30 °C) and -2.76 ± 0.3 (37 °C). Regarding GGCGAGCAAUAUUACGUGCU, the “self-splicing fitness (ln)” value (30 °C) was -3.19 ± 0.34. For UCUGAGCAAUAUUACGCGUC, under “37 °C”, the “self-splicing fitness (ln)” value was -2.49 ± 0.48. Take GGCGAGCAAUAUUACGGCGC: the “self-splicing fitness (ln)” value (30 °C) is -2.51 ± 0.29 and the “self-splicing fitness (ln)” value (37 °C) was -2.52 ± 0.37. In the same order, the values of AAAAAGCAAUAUUACGACUG are -1.14 ± 0.098 and -0.0274 ± 0.11.

With CCCCAGCAAUAUUACGCGAU, the “self-splicing fitness (ln)” value by setting is: (30 °C) -4.32 ± 0.25; (37 °C) -2.36 ± 0.28.

Turning to AUGCAGCAAUAUUACGAAAA, under “37 °C”, the “self-splicing fitness (ln)” value was -2.23 ± 0.42. In the case of GGAGAGCAAUAUUACGUGGG, the “self-splicing fitness (ln)” value (30 °C) is -3.07 ± 0.44 and the “self-splicing fitness (ln)” value (37 °C) was -2.28 ± 0.33. The like results for GACCAGCAAUAUUACGCGGG were, in that order, -3.03 ± 0.13 and -2.79 ± 0.19. The like results for UCUCAGCAAUAUUACGUCAG were, in that order, -3.54 ± 0.25 and -3.16 ± 0.27. The like results for CGUAAGCAAUAUUACGGCAA were, in that order, -2.37 ± 0.25 and -1.68 ± 0.28. Take CGCCAGCAAUAUUACGGCGU: the “self-splicing fitness (ln)” value by setting is: (30 °C) -3.63 ± 0.46; (37 °C) -2.17 ± 0.23. In the same order, the values of CCGAAGCAAUAUUACGGGCU are -4.21 ± 0.23 and -2.36 ± 0.2. With CCCGAGCAAUAUUACGGAAG, the “self-splicing fitness (ln)” value reads like this: (30 °C) -3.91 ± 0.24; (37 °C) -2.29 ± 0.15.

For the sequence CUCGAGCAAUAUUACGUGCU, under “30 °C”, the “self-splicing fitness (ln)” value is -2.36 ± 0.24.

Turning to UGGAAGCAAUAUUACGGGUA, the “self-splicing fitness (ln)” value (30 °C) was -1.67 ± 0.13 and the “self-splicing fitness (ln)” value (37 °C) was -1.05 ± 0.13. In the same order, the values of AUCAAGCAAUAUUACGUAUC are -4.11 ± 0.21 and -2.76 ± 0.34. In the same order, the values of CCCUAGCAAUAUUACGACUC are -4.18 ± 0.28 and -2.71 ± 0.24. In the same order, the values of GCCUAGCAAUAUUACGUCUC are -0.71 ± 0.064 and -0.518 ± 0.086. For the sequence GUGCAGCAAUAUUACGGAGA, the “self-splicing fitness (ln)” value (37 °C) was -1.86 ± 0.38. Regarding UCGAAGCAAUAUUACGCGAA, the “self-splicing fitness (ln)” value was -2.42 ± 0.17 (30 °C) and -0.19 ± 0.13 (37 °C). In the same order, the values of AAUCAGCAAUAUUACGAUAA are -0.0103 ± 0.084 and -0.0641 ± 0.1. In the same order, the values of GAUUAGCAAUAUUACGCGGU are -3.5 ± 0.47 and -3.43 ± 0.33. In the case of UUGCAGCAAUAUUACGAAGG, the “self-splicing fitness (ln)” value (30 °C) was -3.92 ± 0.28 and the “self-splicing fitness (ln)” value (37 °C) was -1.53 ± 0.2. Regarding CCAAAGCAAUAUUACGAAAU, the “self-splicing fitness (ln)” value is -3.31 ± 0.19 (30 °C) and -3.2 ± 0.28 (37 °C). As to UGGCAGCAAUAUUACGCCAA, the “self-splicing fitness (ln)” value is -1.03 ± 0.13 (30 °C) and -0.634 ± 0.12 (37 °C).

Turning to CCUCAGCAAUAUUACGGUUA, the “self-splicing fitness (ln)” value is, setting by setting: (30 °C) -3.34 ± 0.21; (37 °C) -3.26 ± 0.19. In the same order, the values of GGUAAGCAAUAUUACGUUCC are -2.47 ± 0.18 and -2.85 ± 0.24.

Take CAAAAGCAAUAUUACGCGAA: the “self-splicing fitness (ln)” value is -3.36 ± 0.23 (30 °C) and -1.3 ± 0.17 (37 °C).

As to UAUAAGCAAUAUUACGCCCU, the “self-splicing fitness (ln)” value runs as follows: (30 °C) -1.15 ± 0.16; (37 °C) 0.38 ± 0.16. As to UGCAAGCAAUAUUACGCGCA, the “self-splicing fitness (ln)” value was -2.17 ± 0.23 (30 °C) and -1.86 ± 0.29 (37 °C). In the same order, the values of UACGAGCAAUAUUACGCUGG are -3.2 ± 0.27 and -1.77 ± 0.16. For CUGAAGCAAUAUUACGUGGU, the “self-splicing fitness (ln)” value reads like this: (30 °C) -3.3 ± 0.15; (37 °C) -1.41 ± 0.18.

On to CGUUAGCAAUAUUACGUUCU, for which the “self-splicing fitness (ln)” value runs as follows: (30 °C) -1.39 ± 0.15; (37 °C) -1.25 ± 0.14.

On to CGAUAGCAAUAUUACGAGUU, for which the “self-splicing fitness (ln)” value was -3.61 ± 0.24 (30 °C) and -2.28 ± 0.23 (37 °C). In the same order, the values of GUUCAGCAAUAUUACGAAGA are -0.456 ± 0.086 and 0.147 ± 0.1. In the same order, the values of AGCAAGCAAUAUUACGCGGC are -3.39 ± 0.34 and -1.82 ± 0.19.

For the sequence ACAUAGCAAUAUUACGACAC, the “self-splicing fitness (ln)” value was -1.62 ± 0.15 (30 °C) and -1.29 ± 0.21 (37 °C). In the same order, the values of GGAUAGCAAUAUUACGCCCA are -1.36 ± 0.49 and -1.39 ± 0.33.

Values taken from the supplement of paper PMC7877785.
